Fewer inactive variants are shown than the library holds.
B1: TPR 5TU (parent)
chain: GGAUCUUCUCGAUCUAACAAAAAAGACAAAUCUGCCACAAAGCUUGAGAGCAUCUUCGGAUGCAGAGGCGGCAGCCUUCGGUGGCGCGAUAGCGCCAACGUUCUCAACUAUGACACGCAAAACGCGUGCUCCGUUGAAUGGAGUUUAUCAUG

Variants of: B1
Assay: polymerase ribozyme fitness, log enrichment relative to wild type (log ratio); higher = more active; in vitro selection for triplet polymerase activity
Procedure, shortened: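 Only genotypes with ≥10 input reads and ≥1 read per output were kept after Illumina sequencing of input and output libraries. These libraries were PCR-built, transcribed mutants of each subunit of a heterodimeric triplet polymerase ribozyme, each put through one triplicate in vitro selection round with frozen incubation at −7 °C, gel excision of extended constructs, streptavidin-bead capture and RT-PCR. Fitness is a logarithmic ratio of genotype enrichment to wild-type enrichment, from inverse-variance-weighted replicate averages, with the logarithm in base 2.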

Variant | polymerase ribozyme fitness (log ratio)
GGAUCUUCUCGAUCUAACAAAAAAGACAAAUCUGCCACAACGCUUGAGAGCAUCUUCGGAUGCAGUGGCGGCAGCCUUCGGUGGCGAGAUUGCGCCAACGUUGUCAACUAUGACACGCAAAACGCGUGCUCCGUUGAAUGGUGUCUAUCAUG [A41C A66U C87A A91U C103G A142U U145C] | ≤ -4.2
GGAUCUUCUCGAUCUAACAAAAAAGACAAAUCUGCCACAACGCUUGAGAGCAUCUUCGGAUGCAGAGGCGGCAGCCUUCGGUGGCGCGAUAGCGCCAACGUUCUCACCUAUGACACGCAAAACGCGUGCUCCAUUGAAUGGAGGUUAUCAUG [A41C A107C G133A U144G] | ≤ -4.2
GGAUCUUCUCGAUCUAACAAAAAAGACAAAUCUGCCACAACGCUUGAGAGCAUCUUCGGGUGCAGAGGCGGCAGCCUUCGGUGGCGCGAUAACGCCAACGUUCUCUACUAUGACACGCAAAACGCGUGCUCCGUUGAAUGGAGUUUAUCAUG [A41C A60G G92A A106U] | -3.98
GGAUCUUCUCGAUCUAACAAAAAAGACAAAUCUGCCACAACGCUUGAGAGCAUCUUCGGAUGCAGAGGCGGCAGCCUUCGGUGGCGCGAUCGCGCCAACGUUCUCAACUAUGACACGAAAAACGAGUGCUCCGUUGAAUGGAGUUUAUCUUG [A41C A91C C118A C125A A150U] | ≤ -4.2
GGAUCUUCUCGAUCUAACAAAAAAGACAAAUCUGCCACAACGCUUGAGAGCAUCUUCGGUUGCAGAGGCGGCAGCCUUCGGUGGCGCGAUGGCGCCAACGUUCUCAACUAUGACACGCAAAACGCGUGCUCCGCUGAAUGGAGUUUAUCAUG [A41C A60U A91G U134C] | -4.11
GGAUCUUCUCGAUCUAACAAAAAAGACAAAUCUGCCACAACGCUUGAGAGCGUCUUCGGAUCCAGAGGCGGCAGCCUUCGGUGGCGCGAUAGCGGCAACGUUCUCAACUAUGACACGCAAAACGCGUGCUACGUUGAAUGGUGUUUAUAAUG [A41C A52G G62C C95G C131A A142U C149A] | ≤ -4.2
GGAUCUUCUCGAUCUAACAAAAAAGACAAAUCUGCCACAACGCUUGAGAGCAUCUUCGGAUGCAGAGGCGGCAGCCUUCGGUGGCGCGUUAGCGCCAACGUUCUCAACUAUGACACGCAAAAGGCGUGCUCCGUUGAAUGGAGUUUAUCAUG [A41C A89U C123G] | -1.41
GGAUCUUCUCGAUCUAACAAAAAAGACAAAUCUGCCACAACGCUUGAGAGCGUCUUCAGAUGCAGAGGCGGCAGCCUUCGGUGGCGCGAUAGCGCCAACGUUCUCAACUAUGACACGCAAAACGCGUGCUCCGUUGAAUGGAGUUUAUCAUG [A41C A52G G58A] | -1.39
GGAUCUUCUCGAUCUAACAAAAAAGACAAAUCUGCCACAACGCUUGAGAGCAUCUUCGGGUGCAGAGGCGGCAGACUUCGGUGGCGCGAUAGCGCCAACGUUCUCAACUAUGACACGCAAAACGCGUGCUCCGUUGAUUGUAGUUCACCAUG [A41C A60G C75A A138U G141U U146C U148C] | ≤ -4.2
GGAUCUUCUCGAUCUAACAAAAAAGACAAAUCUGCCACAACGCUUGAGAGCAUCUUCGGAUGCAGAGGCGGCAGCCUUCGGUGGCGCGAUAGCGCCGACGUUCUCAACUAUGACACGCAAGACGCGUGCUCCGUUGAAUGGAGUUUAUCAUG [A41C A97G A121G] | -0.295
GGAUCUUCUCGAUCUAACAAAAAAGACAAAUCUGCCACAACGCUUGAGAGCAUCUUCGGAUGCAGAGGCGGCAGCCUUCGGUGGCGCGAUCGCGCCAACGUUCUCAACUAUGACACGCAAAACGCGUGCUCCGUUGAAUGGAGUUUAUCAUG [A41C A91C] | ≤ -4.2
GGAUCUUCUCGAUCUAACAAAAAAGACAAAUCUGCCACAACGCUUGAGAGCAUCUUCGGAUGCAGAGGCGGCAGCCUUCGGUGGCGCGAUGGCGCCAACGUUCUCAACUAUGACACGCAAAACGCGUGCUCCGUUGAAUGGAGUUUAUCAUG [A41C A91G] | -2.85
GGAUCUUCUCGAUCUAACAAAAAAGACAAAUCUGCCACAACGCUUGAGAGCAUCUUCGGAUGCAGAGGCGGCAGCCUUCGGUGGCGCGAUAGCGCCAACGUUCUCGACUAUGACACGCAAAACGCGUGCUCCCUUGAAUGGAGUUUUUCAUG [A41C A106G G133C A147U] | -1.68
GGAUCUUCUCGAUCUAACAAAAAAGACAAAUCUGCCACAACGCUUGAGAGCAUCUUCGGAUGCAGAGGCGGCAGCCUUCGGUGGCGCGAUAGCGCCAACGUUCUCAACUAUGACACGCAUAACGCGUGCUCCGUUGAAUGGAGUUUAUCAUG [A41C A120U] | -0.45
GGAUCUUCUCGAUCUAACAAAAAAGACAAAUCUGCCACAACGCUUGAGAGCAUCUUCGGAUGCAGAGGCGGCAGCCUUCGGUGGCGCGAUAGCGCCAACGUUCUCAACUAUGUAACGCAAAACGCGUGCUCCGUUGAAUGGAGUUUAUCAUG [A41C A113U C114A] | ≤ -4.2
GGAUCUUCUCGAUCUAACAAAAAAGACAAAUCUGCCACAACGCUUGAGAGCAUCUUCGGAUGCAGAGGCGGCAGCCUUCGGUGGCGCGAUCGCGCCAACGUUCUCUACUAUGACACGCAAAACGCGUGCUCCGUUGAAUGGAGUUUACCAUG [A41C A91C A106U U148C] | ≤ -4.2
GGAUCUUCUCGAUCUAACAAAAAAGACAAAUCUGCCACAACGCUUGAGAGCAUCUUCGGAUGCAGAGGCGGCAGCCUUCGGUGGCGCGAUAGCGCCAACGUUCUCCACUAUGACACGCAAAACGCGUGCUCCGUUGAAUGGAGUUUAUCAUG [A41C A106C] | -0.881
GGAUCUUCUCGAUCUAACAAAAAAGACAAAUCUGCCACAACGCUUGAGAGCAUCUUCGGAUGCAGAGGCGGCAGCCUUCGGUGGCGCGAUAGCGCCAACGUUCUCAACUAUGACACGCAAAACGCGUGCUCCGUUGCAUGGAGUUUAUCAUG [A41C A137C] | -3.61
GGAUCUUCUCGAUCUAACAAAAAAGACAAAUCUGCCACAACGCUUGAGAGCAUCUUCGGAUGCAGAGGCGGCAGCCUUCGGUGGCGCGUUAGCGUCAACGUUCUCAACUAUGACACGCAAAACAGGUGCUCCGUUGAAUGGAGUUUAUCAUG [A41C A89U C95U G124A C125G] | -1.75
